Experimental data reported in article PMC7247132 (BMC Proceedings, 2020).

Target: the molecule itself
Assay: Tricine SDS-PAGE, non-reducing against reducing; purified C5-His deglycosylated with glycopeptidase F, 12% gel

B1: N-terminal His-tagged C5 (C5-His) single domain of immunoglobulin new antigen receptor (IgNAR) (domain or fragment)
chain: PKVYLLHPSTDEIDTENSATLMCLATNFHPAEIYVGWMANDTLLDSGYRTQVDSEKGSGSSFVTDRLRLTAAEWNSDTTYSCLVGHPSLNRDLIRSTNKSNGKPSSVNVSVVLSDTVKSCT
With B1 the “stoichiometry N” value was 2.
